Literature values as cited in publication PMC3263801.
pKd: −log10 of the molar value.

Target: hDM2 (Homo sapiens) (UniProt Q00987)
Sequence (Q00987 whole entry): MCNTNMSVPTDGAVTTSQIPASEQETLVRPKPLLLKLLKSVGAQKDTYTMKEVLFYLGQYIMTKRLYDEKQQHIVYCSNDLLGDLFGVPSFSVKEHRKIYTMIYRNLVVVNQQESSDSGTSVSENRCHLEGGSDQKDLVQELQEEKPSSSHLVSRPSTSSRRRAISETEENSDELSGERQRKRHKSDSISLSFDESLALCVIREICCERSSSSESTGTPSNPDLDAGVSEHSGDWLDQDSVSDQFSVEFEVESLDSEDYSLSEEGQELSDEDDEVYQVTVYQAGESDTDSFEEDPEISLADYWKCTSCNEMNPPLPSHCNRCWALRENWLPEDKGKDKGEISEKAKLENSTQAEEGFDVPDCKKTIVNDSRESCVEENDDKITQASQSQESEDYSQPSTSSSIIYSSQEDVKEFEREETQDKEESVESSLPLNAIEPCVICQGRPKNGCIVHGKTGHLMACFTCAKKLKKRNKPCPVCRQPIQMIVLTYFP

- pKd: 9.05
Substance: stapled p53 peptide (from UniProt P04637)
